Reference: article PMC7337520, “NF90 modulates processing of a subset of human pri-miRNAs”

T1: NF90 (UniProt Q12906-2 1-702)
T1 sequence: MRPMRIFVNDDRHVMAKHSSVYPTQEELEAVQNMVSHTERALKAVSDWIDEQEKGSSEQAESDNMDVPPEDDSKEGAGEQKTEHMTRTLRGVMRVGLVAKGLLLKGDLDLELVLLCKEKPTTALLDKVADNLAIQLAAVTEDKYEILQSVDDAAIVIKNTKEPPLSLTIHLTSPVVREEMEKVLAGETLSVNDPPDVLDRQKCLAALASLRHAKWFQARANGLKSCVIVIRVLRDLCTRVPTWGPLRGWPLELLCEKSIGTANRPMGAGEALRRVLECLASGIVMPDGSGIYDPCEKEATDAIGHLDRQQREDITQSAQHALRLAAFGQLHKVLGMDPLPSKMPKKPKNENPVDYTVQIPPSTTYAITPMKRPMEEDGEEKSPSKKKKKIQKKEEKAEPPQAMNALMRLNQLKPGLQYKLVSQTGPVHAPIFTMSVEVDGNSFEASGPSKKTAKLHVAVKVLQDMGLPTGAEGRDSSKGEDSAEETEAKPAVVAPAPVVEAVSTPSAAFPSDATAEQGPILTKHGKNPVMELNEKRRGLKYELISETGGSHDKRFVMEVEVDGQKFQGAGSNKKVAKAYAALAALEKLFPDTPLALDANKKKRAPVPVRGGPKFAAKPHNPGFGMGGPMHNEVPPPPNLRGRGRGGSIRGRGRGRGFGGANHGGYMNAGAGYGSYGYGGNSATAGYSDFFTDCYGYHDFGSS

B1: pri-miR-3173 WT (structured_RNA)
RNA: CAUUGGAGGUCUAGGGCUUAUUUUCCAGAUAGAAUUGAGUCUUUGUUGGUCUUGGGCCAGCUUCCCUGCCCUGCCUGUUUUCUCCUUUGUGAUUUUAUGAGAACAAAGGAGGAAAUAGGCAGGCCAGGGAAACGAUCUCUCUCCCUCUCUUGUGCCGAGGAAGAACU
B2: pri-miR-200a mutant #1 (structured_RNA)
RNA: CUGGCUGCUCACCGCUCCGGUUCUUCCCUGGGCUUCCACAGCAGCCCCUGCCUGCCUGGCGGGACCCCACGUCCCUCCCGGGCCCCUGUGAGCAUCUUACCGGACAGUGCUGGAUUUCCCAGCCUGUCUGGUAACGAUGUUCAAAGGUGACCCGCCGCUCGCCGGGGACACCACCGAGGCACAUC
B3: pri-miR-186 WT (structured_RNA)
RNA: ACAGAACACCCAUCAUAUUCUUCCCAAACAUUUUUUCAUUGCUUGUAACUUUCCAAAGAAUUCUCCUUUUGGGCUUUCUGGUUUUAUUUUAAGCCCAAAGGUGAAUUUUUUGGGAAGUUUGAGCUAAAUUCCUUCAACCAAAAUAUACAAGUGAAGAAAAAAAAUUUGUAUUUAAACAUUUGCACAUUUACUUCUACCUGAAGCAUGUGAAUGUCAAC

Legend:
NF90 [1] = target: T1, NF90; assay: EMSA; RNA EMSA as in ref 15; buffer, salt, pH and temperature not given; at least three replicates; details: protein: recombinant; label: radiolabel; hairpin
NF90 [2] = target: T1, NF90; assay: EMSA; enhanced vs WT; band intensities only in figure; RNA EMSA as in ref 15; buffer, salt, pH and temperature not given; at least three replicates; details: protein: recombinant; label: radiolabel; hairpin

Binder	binding result (NF90 [1])	binding result (NF90 [2])
B1	binds	–
B2	–	binds
B3	binds	–
